Results from publication PMC10210826.

Target: N-terminal biotinylated tetradecapeptide of the C-terminal portion of the SARS-CoV-2 E protein (SARS-CoV-2)
Assay: SPR

Question: For “PDZ2 domain of human ZO1 (ZO1-PDZ2 domain) (domain or fragment)”, which Kd is on record?
Answer: The Kd was 2100 nM.
